According to article PMC3858276, “Completion of Proteomic Data Sets by Kd Measurement Using Cell-Free Synthesis of Site-Specifically Labeled Proteins” (PLoS ONE, 2013):
Where no end group is shown, it is not given here.

B1: phosphorylated SNAP-ADAP fusion protein (ADAP amino acids 570-690) (domain or fragment, human, UniProt O15117 570-690, looked up)
chain: DYDSLKLKKDSLGAPSRPIEDDQEVYDDVAEQDDISSHSQSGSGGIFPPPPDDDIYDGIEEEDADDGFPAPPKQLDMGDEVYDDVDTSDFPVSSAEMSQGTNVGKAKTEEKDLKKLKKQEK
modifications: phosphotyrosine (in vitro phosphorylation by Fyn kinase, approx. 90% of each phosphorylation site; sites in Table S1); BG-647 dye on the SNAP-tag
notes: adhesion and degranulation promoting adapter protein (ADAP), human, section 570-690; Cloned into the SNAP-tag vector pSET7-26b (NEB) via BamHI, XhoI; also called ADAP-P; phosphorylated ADAP; not shown: SNAP-tag, N-terminal, kept
B2: RasaN (N-terminal SH2 domain of Rasa1) without biotin (for MST) (domain or fragment, UniProt P20936 181-272, looked up)
chain: WYHGKLDRTIAEERLRQAGKSGSYLIRESDRRPGSFVLSFLSQMNVVNHFRIIAMCGDYYIGGRRFSSLSDLIGYYSHVSCLLKGEKLLYPV
notes: Rasa1, isolated N-terminal SH2 domain; same linear template as m17, cloned into pIX3.0; source: cell-free (RTS500 PM HY kit, plasmid pIX3.0), partly purified by buffer exchange to PBS and ultracentrifugation
B3: phosphorylated SNAP-YEEI fusion (middle T antigen aa 315-331) (peptide)
chain: THQEEEEPQYEEIPIYL
modifications: not fully specified; also: tyrosine phosphorylation in vitro by Fyn, degree not placed
notes: Middle T antigen of Hamster Polyomavirus, aa 315-331 with the Y324EEI motif; also called phosphorylated YEEI; YEEI fusion construct; not shown: SNAP-tag, N-terminal, kept
B4: SH2D1A without biotin (for MST) (natural protein, UniProt O60880 1-128, looked up)
chain: MDAVAVYHGKISRETGEKLLLATGLDGSYLLRDSESVPGVYCLCVLYHGYIYTYRVSQTETGSWSAETAPGVHKRYFRKIKNLISAFQKPDQGIVIPLQYPVEKKSSARSTQGTTGIREDPDVCLKAP
notes: SH2D1A; same linear template as m7, cloned into pIX3.0; source: cell-free (RTS500 PM HY kit, plasmid pIX3.0), partly purified by buffer exchange to PBS and ultracentrifugation
B5: Lck SH2 domain without biotin (for MST) (domain or fragment, UniProt P06239 127-224, looked up)
chain: WFFKNLSRKDAERQLLAPGNTHGSFLIRESESTAGSFSLSVRDFDQNQGEVVKHYKIRNLDNGGFYISPRITFPGLHELVRHYTNASDGLCTRLSRPC
notes: Lck, SH2 domain; same linear template as m8, cloned into pIX3.0; source: cell-free (RTS500 PM HY kit, plasmid pIX3.0), partly purified by buffer exchange to PBS and ultracentrifugation
B6: SLP-76 SH2 domain without biotin (for MST) (domain or fragment, UniProt Q13094 422-530, looked up)
chain: WYVSYITRPEAEAALRKINQDGTFLVRDSSKKTTTNPYVLMVLYKDKVYNIQIRYQKESQVYLLGTGLRGKEDFLSVSDIIDYFRKMPLLLIDGKNRGSRYQCTLTHAA
notes: SLP-76; same linear template as m10, cloned into pIX3.0; source: cell-free (RTS500 PM HY kit, plasmid pIX3.0), partly purified by buffer exchange to PBS and ultracentrifugation

How the values were obtained:
Settings in all cases: one partner purified
[1] = target: T1, Rasa1b (Rasa1 sequence 174-447) without biotin (for MST) (UniProt P20936 174-447); experiment: MST; SH2 proteins (only partly purified) serially diluted in 1x PBS with 1.75% (v/v) E. coli extract; fluorescent ADAP at 12 nM; 5 min at RT; Monolith NT.115
T1 construct: same linear template as m11, cloned into pIX3.0; source: cell-free (RTS500 PM HY kit, plasmid pIX3.0), partly purified by buffer exchange to PBS and ultracentrifugation
T1 sequence (looked up): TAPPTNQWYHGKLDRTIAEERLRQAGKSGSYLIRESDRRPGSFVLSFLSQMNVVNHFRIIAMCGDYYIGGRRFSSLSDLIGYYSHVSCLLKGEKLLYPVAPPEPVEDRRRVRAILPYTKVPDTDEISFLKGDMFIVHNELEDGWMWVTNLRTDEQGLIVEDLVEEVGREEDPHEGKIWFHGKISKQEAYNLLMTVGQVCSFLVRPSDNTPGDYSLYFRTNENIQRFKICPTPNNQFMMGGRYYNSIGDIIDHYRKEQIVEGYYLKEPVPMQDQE

[2] = target: B1; experiment: as above
[3] = target: T2, Src SH2 domain without biotin (for MST) (UniProt P12931 151-248); experiment: MST; as for ADAP, with the fluorescent YEEI fusion and 0.05% Tween-20 (v/v) added to the interaction buffer; SH2 proteins (only partly purified) serially diluted
T2 construct: Src, SH2 domain; same linear template as m6, cloned into pIX3.0; source: cell-free (RTS500 PM HY kit, plasmid pIX3.0), partly purified by buffer exchange to PBS and ultracentrifugation

Binder | Kd [2] | other results
B1 |  | Kd [1]: ~100 nM
B2 | ~100 nM | 
B3 |  | Kd [3]: ~515 nM
B4 |  | fold weaker binding than the SH2 domains of Src, Lck and Fyn [2]: 6 fold
B5 | ~1000 nM | 
B6 | ~400 nM | 
